Experimental findings from patent publication US20090285813A1 (MMRGLOBAL, published 2009) are described below.

For assay [1], the target named is T1, human CD20 (human, UniProt P11836 1-297).
T1 construct: whole, on cells; Target always presented on cells; also called CD20 antigen
T1 sequence (looked up): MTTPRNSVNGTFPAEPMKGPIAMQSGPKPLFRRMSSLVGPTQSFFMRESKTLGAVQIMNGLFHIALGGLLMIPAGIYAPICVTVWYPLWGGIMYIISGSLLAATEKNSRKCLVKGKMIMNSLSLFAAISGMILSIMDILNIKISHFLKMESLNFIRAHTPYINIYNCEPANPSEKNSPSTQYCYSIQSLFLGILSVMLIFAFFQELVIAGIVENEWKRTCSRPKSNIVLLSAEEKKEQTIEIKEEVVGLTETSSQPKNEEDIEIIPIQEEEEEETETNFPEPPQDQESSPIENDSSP
Description: anti-CD20 cellular ELISA, supernatant; rank 2 of 29.

Assay [2] addresses T1, human CD20. The assay is described as follows: anti-CD20 cellular ELISA, supernatant; rank 5 of 29. On the technique in general: An ELISA detects its analyte on a solid surface through an enzyme-linked reagent.
The target in assay [3] is T1, human CD20. The assay is described as follows: anti-CD20 cellular ELISA, supernatant; rank 6 of 29.
For assay [4], the target named is T1, human CD20. Description: anti-CD20 cellular ELISA, supernatant; rank 4 of 29.
Assay [5] addresses T1, human CD20. Description: anti-CD20 cellular ELISA, supernatant; rank 8 of 29.
Assay [6] addresses T1, human CD20. The assay is described as follows: anti-CD20 cellular ELISA, supernatant; rank 1 of 29.
In assay [7] the target is T1, human CD20. Description: anti-CD20 cellular ELISA, supernatant; rank 7 of 29.
Assay [8] concerns the target T1, human CD20. The assay is described as follows: anti-CD20 cellular ELISA, supernatant; rank 3 of 29.

B1: anti-CD20 HuFR variant 2 (light chain BD22085, heavy chain BD20335) (antibody, human IgG1, kappa, V domains shown)
VH: QVQLVQSGAEVKKPGASVKVSCKASGYTFTSYNMHWVRQAPGKGLEWMGAIYPGNGDTSYNQKFKGRFTISRDNAKNSLYLQMNSLRAEDTAVYYCARSHYGSNYVDYFDYWGQGTLVTVSS
VL: DIVMTQSPDSLAVSLGERATINCRASSSLSFMHWYQQKPGQAPRLLIYATSNLASGVPSRFSGSGSGTDFTLTISSLQPEDFATYYCHQWSSNPLTFGQGTKVEIKR
notes: Full-length IgG, unpurified HEK-293 supernatant; also called LC & HC combination 2
With B1, the binding result in assay [1] was “binds”.

B2: anti-CD20 HuFR variant 5 (light chain BD22087, heavy chain BD20335) (antibody, human IgG1, kappa, V domains shown)
VH: QVQLVQSGAEVKKPGASVKVSCKASGYTFTSYNMHWVRQAPGKGLEWMGAIYPGNGDTSYNQKFKGRFTISRDNAKNSLYLQMNSLRAEDTAVYYCARSHYGSNYVDYFDYWGQGTLVTVSS
VL: EIVLTQSPGTLSLSPGERATLSCRASSSLSFMHWYQQKPGKAPKLLIYATSNLASGVPSRFSGSGSGTEFTLTISSLQPDDFATYYCHQWSSNPLTFGQGTKVEIKR
notes: Full-length IgG, unpurified HEK-293 supernatant; also called LC & HC combination 5
On to B2, for which, in assay [2], the binding result is listed as “binds”.

B3: anti-CD20 HuFR variant 6 (light chain BD22089, heavy chain BD20335) (antibody, human IgG1, kappa, V domains shown)
VH: QVQLVQSGAEVKKPGASVKVSCKASGYTFTSYNMHWVRQAPGKGLEWMGAIYPGNGDTSYNQKFKGRFTISRDNAKNSLYLQMNSLRAEDTAVYYCARSHYGSNYVDYFDYWGQGTLVTVSS
VL: EIVLTQSPATLSLSPGERATLSCRASSSLSFMHWYQQKPGQPPKLLIYATSNLASGVPSRFSGSGSGTDFTFTISSLQPEDIATYYCHQWSSNPLTFGQGTKVEIKR
notes: Full-length IgG, unpurified HEK-293 supernatant; also called LC & HC combination 6
In the case of B3, the binding result in assay [3] was “binds”.

B4: anti-CD20 HuFR variant 4 (light chain BD22088, heavy chain BD20337) (antibody, human IgG1, kappa)
heavy: not shown
light: DIVMTQSPLSLPVTPGEPASISCRASSSLSFMHWYQQKPGQPPKLLIYATSNLASGVPSRFSGSGSGTDFTFTISSLQPEDIATYYCHQWSSNPLTFGQGTKVEIKRTVAAPSVFIFPPSDEQLKSGTASVVCLLNNFYPREAKVQWKVDNALQSGNSQESVTEQDSKDSTYSLSSTLTLSKADYEKHKVYACEVTHQGLSSPVTKSFNRGEC
notes: Full-length IgG, unpurified HEK-293 supernatant; also called LC & HC combination 4
As for B4, the binding result in assay [4] is on record as “binds”.

B5: anti-CD20 HuFR variant 8 (light chain BD22095, heavy chain BD20337) (antibody, human IgG1, kappa)
heavy: not shown
light: EIVMTQSPATLSVSPGERATLSCRASSSLSFMHWYQQKPGQPPKLLIYATSNLASGVPSRFSGSGSGTDFTFTISSLQPEDIATYYCHQWSSNPLTFGQGTKVEIKRTVAAPSVFIFPPSDEQLKSGTASVVCLLNNFYPREAKVQWKVDNALQSGNSQESVTEQDSKDSTYSLSSTLTLSKADYEKHKVYACEVTHQGLSSPVTKSFNRGEC
notes: Full-length IgG, unpurified HEK-293 supernatant; also called LC & HC combination 8
Take B5: in assay [5], the binding result is reported as “binds”.

B6: anti-CD20 HuFR variant 1 (light chain BD22084, heavy chain BD20332) (antibody, human IgG1, kappa, V domains shown)
VH: QVQLVQSGAEVKKPGASVKVSCKASGYTFTSYNMHWVRQAPGKGLEWVGAIYPGNGDTSYNQKFKGRVTISADKSISTAYLQWSSLKASDTAMYYCARSHYGSNYVDYFDYWGQGTLVTVSS
VL: DIVMTQSPLSLPVTPGEPASISCRASSSLSFMHWYQQKPGQPPKLLIYATSNLASGIPARFSGSGSGTDFTLTISSLEPEDFAVYYCHQWSSNPLTFGQGTKVEIKR
notes: Full-length IgG, unpurified HEK-293 supernatant; also called LC & HC combination 1
As for B6, in assay [6], the binding result is reported as “binds”.

B7: anti-CD20 HuFR variant 7 (light chain BD22090, heavy chain BD20337) (antibody, human IgG1, kappa, V domains shown)
VH: QVQLVQSGAEVKKPGASVKVSCKASGYTFTSYNMHWVRQAPGQGLEWMGAIYPGNGDTSYNQKFKGRVTISADKSISTAYLQWSSLKASDTAMYYCARSHYGSNYVDYFDYWGQGTLVTVSS
VL: DIVMTQSPLSLPVTPGEPASISCRASSSLSFMHWYLQKPGQSPQLLIYATSNLASGVPDRFSGSGSGTDFTLKISRVEAEDVGVYYCHQWSSNPLTFGQGTKVEIKR
notes: Full-length IgG, unpurified HEK-293 supernatant; also called LC & HC combination 7
As for B7, in assay [7], the binding result is “binds”.

B8: anti-CD20 HuFR variant 3 (light chain BD22086, heavy chain BD20335) (antibody, human IgG1, kappa, V domains shown)
VH: QVQLVQSGAEVKKPGASVKVSCKASGYTFTSYNMHWVRQAPGKGLEWMGAIYPGNGDTSYNQKFKGRFTISRDNAKNSLYLQMNSLRAEDTAVYYCARSHYGSNYVDYFDYWGQGTLVTVSS
VL: DIVMTQSPLSLPVTPGEPASISCRASSSLSFMHWYQQKPGQAPRLLIYATSNLASGVPDRFSGSGSGTDFTLTISSLQAEDVAVYYCHQWSSNPLTFGQGTKVEIKR
notes: Full-length IgG, unpurified HEK-293 supernatant; also called LC & HC combination 3
In the case of B8, the binding result in assay [8] is on record as “binds”.
